Measurements reported in publication PMC3929087.

Experiments:
[1] = cellular trafficking, method not given; conditions: glycan lost; control: wild type
[2] = secretion into CHO culture medium (unpublished data); conditions: glycan lost; control: wild type

B1: angiotensin I-converting enzyme (somatic ACE): N1162Q (protein)
parent chain: MGAASGRRGPGLLLPLPLLLLLPPQPALALDPGLQPGNFSADEAGAQLFAQSYNSSAEQVLFQSVAASWAHDTNITAENARRQEEAALLSQEFAEAWGQKAKELYEPIWQNFTDPQLRRIIGAVRTLGSANLPLAKRQQYNALLSNMSRIYSTAKVCLPNKTATCWSLDPDLTNILASSRSYAMLLFAWEGWHNAAGIPLKPLYEDFTALSNEAYKQDGFTDTGAYWRSWYNSPTFEDDLEHLYQQLEPLYLNLHAFVRRALHRRYGDRYINLRGPIPAHLLGDMWAQSWENIYDMVVPFPDKPNLDVTSTMLQQGWNATHMFRVAEEFFTSLELSPMPPEFWEGSMLEKPADGREVVCHASAWDFYNRKDFRIKQCTRVTMDQLSTVHHEMGHIQYYLQYKDLPVSLRRGANPGFHEAIGDVLALSVSTPEHLHKIGLLDRVTNDTESDINYLLKMALEKIAFLPFGYLVDQWRWGVFSGRTPPSRYNFDWWYLRTKYQGICPPVTRNETHFDAGAKFHVPNVTPYIRYFVSFVLQFQFHEALCKEAGYEGPLHQCDIYRSTKAGAKLRKVLQAGSSRPWQEVLKDMVGLDALDAQPLLKYFQPVTQWLQEQNQQNGEVLGWPEYQWHPPLPDNYPEGIDLVTDEAEASKFVEEYDRTSQVVWNEYAEANWNYNTNITTETSKILLQKNMQIANHTLKYGTQARKFDVNQLQNTTIKRIIKKVQDLERAALPAQELEEYNKILLDMETTYSVATVCHPNGSCLQLEPDLTNVMATSRKYEDLLWAWEGWRDKAGRAILQFYPKYVELINQAARLNGYVDAGDSWRSMYETPSLEQDLERLFQELQPLYLNLHAYVRRALHRHYGAQHINLEGPIPAHLLGNMWAQTWSNIYDLVVPFPSAPSMDTTEAMLKQGWTPRRMFKEADDFFTSLGLLPVPPEFWNKSMLEKPTDGREVVCHASAWDFYNGKDFRIKQCTTVNLEDLVVAHHEMGHIQYFMQYKDLPVALREGANPGFHEAIGDVLALSVSTPKHLHSLNLLSSEGGSDEHDINFLMKMALDKIAFIPFSYLVDQWRWRVFDGSITKENYNQEWWSLRLKYQGLCPPVPRTQGDFDPGAKFHIPSSVPYIRYFVSFIIQFQFHEALCQAAGHTGPLHKCDIYQSKEAGQRLATAMKLGFSRPWPEAMQLITGQPNMSASAMLSYFKPLLDWLRTENELHGEKLGWPQYNWTPNSARSEGPLPDSGRVSFLGLDLDAQQARVGQWLLLFLGIALLVATLGLSQRLFSIRHRSLHRHSHGPQFGSEVELRHS
[1]
  localisation_or_trafficking: no change
[2]
  expression_or_secretion: no change
